Experiment [1] concerns the target G-CSF-R (Homo sapiens (Human)) (UniProt Q99062). Nature of the experiment: potency ELISA, plate coated with G-CSFR, HRP detection, parallel line analysis; 120 mg/mL formulation, 0 months at 5 C.
The target is the same in experiment [2]. Nature of the experiment: potency ELISA, plate coated with G-CSFR, HRP detection, parallel line analysis; 120 mg/mL formulation, 3 months at 5 C.
For experiment [3] the target is unchanged. Nature of the experiment: potency ELISA, plate coated with G-CSFR, HRP detection, parallel line analysis; 120 mg/mL formulation, 6 months at 5 C.
The target is the same in experiment [4]. Nature of the experiment: potency ELISA, plate coated with G-CSFR, HRP detection, parallel line analysis; 120 mg/mL formulation, 9 months at 5 C.
Experiment [5] shares this target. Nature of the experiment: potency ELISA, plate coated with G-CSFR, HRP detection, parallel line analysis; 120 mg/mL formulation, 12 months at 5 C.
Experiment [6] shares this target. Nature of the experiment: potency ELISA, plate coated with G-CSFR, HRP detection, parallel line analysis; 120 mg/mL formulation, 18 months at 5 C.
The target is the same in experiment [7]. In words: potency ELISA, plate coated with G-CSFR, HRP detection, parallel line analysis; 120 mg/mL formulation, 24 months at 5 C.
The target is the same in experiment [8]. Nature of the experiment: potency ELISA, plate coated with G-CSFR, HRP detection, parallel line analysis; 120 mg/mL formulation, 0 months at 25 C.
Experiment [9] shares this target. Nature of the experiment: potency ELISA, plate coated with G-CSFR, HRP detection, parallel line analysis; 120 mg/mL formulation, 3 months at 25 C.
Experiment [10] has the same target. Nature of the experiment: potency ELISA, plate coated with G-CSFR, HRP detection, parallel line analysis; 120 mg/mL formulation, 6 months at 25 C.
Experiment [11] shares this target. Nature of the experiment: potency ELISA, plate coated with G-CSFR, HRP detection, parallel line analysis; 120 mg/mL formulation, 9 months at 25 C.
The target is the same in experiment [12]. Nature of the experiment: potency ELISA, plate coated with G-CSFR, HRP detection, parallel line analysis; 120 mg/mL formulation, 12 months at 25 C.
Experiment [13] shares this target. In words: potency ELISA, plate coated with G-CSFR, HRP detection, parallel line analysis; 120 mg/mL formulation, 18 months at 25 C.

Potency relative to reference standard data for one substance are collected here from patent US20240002517A1.

Consider CSL324 (antibody), for which the potency relative to reference standard in [1] is 108%; in experiment [2], 116%; in experiment [3] it was 108%; in experiment [4] it was 108%; in experiment [5], 107%; in experiment [6], 100%. The potency relative to reference standard in experiment [7] worked out at 103%; in experiment [8] it was 108%; in experiment [9], 109%; in experiment [10], 109%; in experiment [11], 99%; in experiment [12], 96%. The same substance gave a potency relative to reference standard in experiment [13] of 96%.
